Data from patent publication US12139534B2, “Methods and compositions for decreasing soluble immune receptor CD28” (BIOND BIOLOGICS LTD., priority 2018, dated 2024).

Experiments:
recombinant mouse CD28 = molecular target: T1, recombinant mouse CD28 (Mus musculus, UniProt P31041); assay: Direct ELISA on recombinant mouse CD28; type: binding
T1 construct: ELISA assay on increasing concentrations of mouse sCD28; purchased R&D 483-CD

mCD28 [1] = molecular target: T2, mCD28 (Homo sapiens, UniProt P10747); assay: FACS binding to mCD28 on naïve CD3 T cells; conditions: antibody 20 μg/mL
T2 construct: expressed in transfected cells
Description: Flow Cytometry—Generally, cells were kept on ice during all steps. Prior to staining, 5×10^5 cells were blocked with 50 μg/mL human IgG (Sigma, Cat. No. 14506) in FACS buffer (PBS with 0.1% BSA) for 15 min. Antibodies were used at concentrations recommended by the manufacturer and incubated for 30 min. in the dark. Incubations were done in a volume of 100 μL in 96-well U bottom plates. Cells were washed twice with 200 μL of FACS buffer and transferred to FACS tubes in 150 μL of FACS buffer for analysis. Cells were analyzed on a Gallios Flow Cytometer (Beckman Coulter) using the Kaluza for Gallios Flow Cytometry Acquisition Software.
Lastly, the ability of antibodies #1-3 to bind to mCD28 at all was examined. While it is not essential that a sCD28 antibody not bind mCD28 it is advantageous. Such an antibody could be used for specific detection of the soluble protein, and if used therapeutically would have no effect on the membranal form. Naïve isolated CD3 T cells were evaluated by FACs to assay mCD28 binding. Cells were incubated with antibodies #1-3 (20 μg/mL dark grey histograms) or isotype controls (mIgG, 20 μg/mL, light grey histograms). Binding detection was performed with Alexa Fluor 647-conjugated goat anti mouse secondary antibody.

recombinant human CD28 = molecular target: T3, recombinant human CD28 (Homo sapiens, UniProt P10747); assay: Direct CD28 ELISA on recombinant human CD28; type: binding
T3 construct: recombinant human CD28 lacking the transmembrane and cytoplasmic domains; purchased R&D 342-CD

sCD28 = assay: Simulated sweeping of soluble CD28 from plasma with antibody coated magnetic beads; design: species or system human; conditions: cancer patient plasma; 0.125-2 μg antibody on beads; 37° C. 2 hours
Description: Simulated sweeping of soluble CD28 from plasma of cancer patient. Antibodies or recombinant proteins were coated on tosyl-activated magnetic beads (Invitrogen, Cat. No. DY-14203) as described by manufacturer protocol. […] The mixture was incubated in a thermomixer for 2 hr, 1000 RPM at 37° C., followed by removal of the beads using a DynaMag magnet (Invitrogen, Cat. No. 12321D) and the samples were examined using CD28 specific ELISA.
Varying amounts (0.125-2 μg) of antibodies #1 and #2 were loaded onto tosyl-activated magnetic beads according to the manufacturer's protocol (Thermo Fisher Scientific). The loaded beads were then added to plasma samples from a cancer patient, and the mixture was incubated in a thermomixer at 37° C. for 2 hours at 1000 RPM. The beads were isolated and removed from the plasma with a magnet and the amount of sCD28 remaining in the serum was measured by ELISA.
Antibody #1 was further tested on various cancer samples (melanoma, colorectal and ovarian) and compared to three B7 molecules which are known ligands of CD28. About 1.5 μg of antibody #1, CD80, CD86 and ICOSL were each loaded onto tosyl-activated magnetic beads and the beads were mixed with plasma as before. A colorectal sample (FIG. 16C), as well as two melanoma samples (FIG. 16D-E), an ovarian sample (FIG. 16F) and a sample from a healthy donor (FIG. 16G) were all tested.

mCD28 [2] = molecular target: T2, mCD28; assay: CD86 blocking FACS on HEK293 cells stably transfected with human CD28; type: binding; conditions: CD86-Fc 5 μg/mL; antibody 20 μg/mL
Description: CD86 blocking FACS—0.5×10^6 HEK293 cells stably transfected with human CD28 were incubated with 5 μg/mL CD86-Fc (R&D systems, Cat. No. 141-B2) without or with anti CD28 antibodies (20 μg/mL) for 30 min in room temperature. Cells were washed and taken for secondary binding using anti-human heavy and light chains antibody conjugated to fluorophore at 1:5000 dilution for 20 min on ice.

[3] = tested on: isolated CD3 human T cells; assay: CD3 T cells stimulation with anti-CD3 OKT3, IFN gamma secretion; type: cell-based; conditions: anti-CD3 stimulation; CD28.2 2.0 μg/mL, antibodies 0.1-10 μg/mL
Description: T cells stimulation with OKT3—0.1×10^6 isolated CD3 T cells (from healthy donors) were stimulated with indicated amount of anti-CD3 clone OKT3 for 48-72 hr at 37° C. When stated recombinant human CD80-Fc (2 μg/mL, R&D system) was added in soluble form. Antibodies to CD28 or controls were added at the indicated concentration in soluble form.
CD80 is one of the two main ligands for mCD28 along with CD86. The extracellular domain of CD80 fused to an Fc moiety has been used as an immune stimulatory molecule and is under investigation as a cancer therapy. In order to examine the effect of sCD28 on CD80-Fc efficacy, isolated CD3 human T cells were stimulated with plate bound anti-CD3 antibody (OKT3, 2 μg/mL) in the presence of 2 μg/mL soluble recombinant human CD80-Fc.

T1 sequence (P31041 20-150 limits assumed): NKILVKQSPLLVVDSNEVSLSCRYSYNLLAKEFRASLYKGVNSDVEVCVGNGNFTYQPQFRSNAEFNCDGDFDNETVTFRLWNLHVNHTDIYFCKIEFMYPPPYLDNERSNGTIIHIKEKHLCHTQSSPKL

binding to mouse CD28 (recombinant mouse CD28): able to bind mouse CD28 | binding to mCD28 on the cell surface (mCD28 [1]): do not bind CD28 on the cell surface | binding to sCD28 (recombinant human CD28; immobilized recombinant human sCD28): much stronger binding to sCD28
B1: antibody #2: sCD28 binding (sweeping) antibody; heavy chain SEQ ID NO: 46, light chain SEQ ID NO: 48 (antibody)
heavy: QVQLQQSGAELARPGASVKLSCKASGYTFTSYWMQWIKKRPGQGLEWIGAIYPGDGDTRYTQKFKGKATLTADKSSTTAYMQLSSLASEDSAVYFCARNYRYSSFGYWGQGTLVTVSAAKTTPPSVYPLAPGCGDTTGSSVTLGCLVKGYFPESVTVTWNSGSLSSSVHTFPALLQSGLYTMSSSVTVPSSTWPSQTVTCSVAHPASSTTVDKKLEPSGPISTINPCPPCKECHKCPAPNLEGGPSVFIFPPNIKDVLMISLTPKVTCVVVDVSEDDPDVQISWFVNNVEVHTAQTQTHREDYNSTIRVVSTLPIQHQDWMSGKEFKCKVNNKDLPSPIERTISKIKGLVRAPQVYILPPPAEQLSRKDVSLTCLVVGFNPGDISVEWTSNGHTEENYKDTAPVLDSDGSYFIYSKLNMKTSKWEKTDSFSCNVRHEGLKNYYLKKTISRSPGK
light: DIVMTQSPSSLTVTAGEKVTLSCKSSQSLLNSGNQKNYLTWYQQKPGQPPQLLIYWASTRESGVPDRFTGSGSGTDFTLTISSVQAEDLAVYYCQSDYSYPLTFGAGTKLELKRADAAPTVSIFPPSSEQLTSGGASVVCFLNNFYPKDINVKWKIDGSERQNGVLNSWTDQDSKDSTYSMSSTLTLTKDEYERHNSYTCEATHKTSTSPIVKSFNRNEC
relationship of signal to concentration (recombinant human CD28): a linear relationship to increasing antibody concentrations over the entire range examined | removal of sCD28 from plasma (sCD28): capable of binding and removing sCD28 from plasma | CD86 binding to mCD28 (mCD28 [2]): none of antibody #1 (FIG. 15B), antibody #2 (FIG. 15C), or antibody #3 (FIG. 15D) blocked binding of CD86 to mCD28 | IFNγ secretion (agonism) [3]: no effect on IFN secretion
